Measured values: patent US20250262210A1 (TRUSTEES OF COLUMBIA UNIVERSITY IN THE CITY OF NEW YORK, published 2025)

Columns and labels:
[1] = target: T1, ATAD2 (human, UniProt Q6PL18 1-1390, limits assumed); test: IP/MS, LZTR1 wild type-FLAG, U87
T1 sequence (looked up): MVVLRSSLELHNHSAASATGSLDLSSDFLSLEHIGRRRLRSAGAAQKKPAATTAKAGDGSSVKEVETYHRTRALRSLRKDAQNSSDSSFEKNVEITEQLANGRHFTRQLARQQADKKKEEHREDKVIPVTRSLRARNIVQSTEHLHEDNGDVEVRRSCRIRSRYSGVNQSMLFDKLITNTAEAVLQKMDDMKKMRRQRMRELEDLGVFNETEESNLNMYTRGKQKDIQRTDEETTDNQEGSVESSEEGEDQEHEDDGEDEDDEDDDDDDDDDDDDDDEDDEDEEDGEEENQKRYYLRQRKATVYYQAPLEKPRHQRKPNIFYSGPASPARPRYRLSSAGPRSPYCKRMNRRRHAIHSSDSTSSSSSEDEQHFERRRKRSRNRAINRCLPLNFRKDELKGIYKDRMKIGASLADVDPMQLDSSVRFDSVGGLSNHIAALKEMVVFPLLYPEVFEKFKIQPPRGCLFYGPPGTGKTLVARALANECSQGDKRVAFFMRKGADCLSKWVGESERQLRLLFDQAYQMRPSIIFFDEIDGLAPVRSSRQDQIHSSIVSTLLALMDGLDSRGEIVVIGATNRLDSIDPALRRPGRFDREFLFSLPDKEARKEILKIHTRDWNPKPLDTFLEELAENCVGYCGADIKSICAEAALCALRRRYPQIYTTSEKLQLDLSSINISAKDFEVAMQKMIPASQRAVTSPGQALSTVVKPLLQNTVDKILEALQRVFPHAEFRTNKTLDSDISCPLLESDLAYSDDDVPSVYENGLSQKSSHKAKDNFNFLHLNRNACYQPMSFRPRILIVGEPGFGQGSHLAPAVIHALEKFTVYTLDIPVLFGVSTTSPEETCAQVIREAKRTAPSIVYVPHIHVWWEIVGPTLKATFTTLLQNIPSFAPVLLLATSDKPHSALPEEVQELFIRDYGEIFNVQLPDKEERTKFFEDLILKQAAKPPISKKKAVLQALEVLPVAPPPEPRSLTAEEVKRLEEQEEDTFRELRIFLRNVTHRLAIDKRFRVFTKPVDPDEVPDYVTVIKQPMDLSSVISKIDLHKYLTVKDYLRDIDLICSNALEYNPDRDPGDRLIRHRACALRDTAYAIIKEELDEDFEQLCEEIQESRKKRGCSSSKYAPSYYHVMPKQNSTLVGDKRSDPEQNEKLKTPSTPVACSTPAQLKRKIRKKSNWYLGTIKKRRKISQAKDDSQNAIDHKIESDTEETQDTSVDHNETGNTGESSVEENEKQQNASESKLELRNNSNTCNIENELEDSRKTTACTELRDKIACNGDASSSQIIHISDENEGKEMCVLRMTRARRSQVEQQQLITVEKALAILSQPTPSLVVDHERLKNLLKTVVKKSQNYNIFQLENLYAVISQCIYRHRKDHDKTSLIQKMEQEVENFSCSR
Method in brief: (§1)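 Extracted peptides in 3% acetonitrile/0.1% formic acid ran on a 50 cm C18 column into an Orbitrap Fusion, with MaxQuant identification and spectral counting.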

[2] = target: CDK5RAP2 (human, UniProt Q96SN8 1-1893, limits assumed); test: IP/MS, LZTR1 wild type-FLAG, U87
Method in brief: as §1

Sequence of CDK5RAP2 (Q96SN8 whole entry): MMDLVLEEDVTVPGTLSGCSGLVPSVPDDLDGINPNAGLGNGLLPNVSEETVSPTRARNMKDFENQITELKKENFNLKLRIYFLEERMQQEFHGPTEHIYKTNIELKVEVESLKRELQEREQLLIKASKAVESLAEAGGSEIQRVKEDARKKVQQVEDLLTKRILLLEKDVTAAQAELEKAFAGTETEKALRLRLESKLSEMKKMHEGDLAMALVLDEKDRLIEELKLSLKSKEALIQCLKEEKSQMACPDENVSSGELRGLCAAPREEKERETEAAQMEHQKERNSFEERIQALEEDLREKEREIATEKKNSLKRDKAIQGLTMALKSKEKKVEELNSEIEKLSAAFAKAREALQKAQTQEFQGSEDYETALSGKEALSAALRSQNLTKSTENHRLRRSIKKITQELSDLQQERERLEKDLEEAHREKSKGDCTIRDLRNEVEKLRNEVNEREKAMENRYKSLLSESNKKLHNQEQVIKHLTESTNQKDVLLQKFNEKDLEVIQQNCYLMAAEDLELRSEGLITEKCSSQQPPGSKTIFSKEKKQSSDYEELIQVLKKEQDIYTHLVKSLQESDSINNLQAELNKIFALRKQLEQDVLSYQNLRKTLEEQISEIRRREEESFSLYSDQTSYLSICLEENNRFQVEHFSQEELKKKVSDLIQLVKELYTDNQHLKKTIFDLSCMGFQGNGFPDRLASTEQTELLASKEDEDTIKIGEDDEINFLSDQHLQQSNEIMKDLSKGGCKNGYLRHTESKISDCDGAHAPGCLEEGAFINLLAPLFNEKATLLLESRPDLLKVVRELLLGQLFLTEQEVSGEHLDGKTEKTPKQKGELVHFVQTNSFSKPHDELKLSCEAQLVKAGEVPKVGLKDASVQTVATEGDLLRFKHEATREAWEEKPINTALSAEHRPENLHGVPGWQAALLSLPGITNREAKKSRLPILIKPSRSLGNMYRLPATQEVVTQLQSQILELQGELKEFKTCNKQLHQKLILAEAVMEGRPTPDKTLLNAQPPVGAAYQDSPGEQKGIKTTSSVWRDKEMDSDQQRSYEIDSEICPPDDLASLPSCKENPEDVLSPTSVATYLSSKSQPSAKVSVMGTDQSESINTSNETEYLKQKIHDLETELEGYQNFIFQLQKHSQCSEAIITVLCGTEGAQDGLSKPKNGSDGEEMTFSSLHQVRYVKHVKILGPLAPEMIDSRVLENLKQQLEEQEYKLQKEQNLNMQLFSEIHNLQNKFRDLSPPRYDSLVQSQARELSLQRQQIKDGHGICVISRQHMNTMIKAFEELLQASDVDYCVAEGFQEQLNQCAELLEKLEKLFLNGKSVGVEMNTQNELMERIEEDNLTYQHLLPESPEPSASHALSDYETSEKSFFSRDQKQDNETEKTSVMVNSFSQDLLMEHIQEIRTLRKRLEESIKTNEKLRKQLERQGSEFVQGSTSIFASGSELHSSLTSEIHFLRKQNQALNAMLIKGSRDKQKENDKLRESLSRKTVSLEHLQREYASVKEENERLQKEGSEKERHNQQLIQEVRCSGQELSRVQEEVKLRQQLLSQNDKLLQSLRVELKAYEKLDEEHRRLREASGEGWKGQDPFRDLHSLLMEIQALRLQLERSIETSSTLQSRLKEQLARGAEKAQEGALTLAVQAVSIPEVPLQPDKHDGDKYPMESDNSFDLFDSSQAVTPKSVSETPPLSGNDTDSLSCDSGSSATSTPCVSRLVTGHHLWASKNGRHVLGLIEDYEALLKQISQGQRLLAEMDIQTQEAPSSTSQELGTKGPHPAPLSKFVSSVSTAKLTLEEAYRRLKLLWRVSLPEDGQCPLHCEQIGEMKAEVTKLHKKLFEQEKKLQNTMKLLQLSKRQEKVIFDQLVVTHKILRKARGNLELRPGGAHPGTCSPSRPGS

B1: LZTR1-FLAG (other, human, UniProt Q8N653 1-840, looked up)
chain: MAGPGSTGGQIGAAALAGGARSKVAPSVDFDHSCSDSVEYLTLNFGPFETVHRWRRLPPCDEFVGARRSKHTVVAYKDAIYVFGGDNGKTMLNDLLRFDVKDCSWCRAFTTGTPPAPRYHHSAVVYGSSMFVFGGYTGDIYSNSNLKNKNDLFEYKFATGQWTEWKIEGRLPVARSAHGATVYSDKLWIFAGYDGNARLNDMWTIGLQDRELTCWEEVAQSGEIPPSCCNFPVAVCRDKMFVFSGQSGAKITNNLFQFEFKDKTWTRIPTEHLLRGSPPPPQRRYGHTMVAFDRHLYVFGGAADNTLPNELHCYDVDFQTWEVVQPSSDSEVGGAEVPERACASEEVPTLTYEERVGFKKSRDVFGLDFGTTSAKQPTQPASELPSGRLFHAAAVISDAMYIFGGTVDNNIRSGEMYRFQFSCYPKCTLHEDYGRLWESRQFCDVEFVLGEKEECVQGHVAIVTARSRWLRRKITQARERLAQKLEQEAAPVPREAPGVAAGGARPPLLHVAIREAEARPFEVLMQFLYTDKIKYPRKGHVEDVLLIMDVYKLALSFQLCRLEQLCRQYIEASVDLQNVLVVCESAARLQLSQLKEHCLNFVVKESHFNQVIMMKEFERLSSPLIVEIVRRKQQPPPRTPLDQPVDIGTSLIQDMKAYLEGAGAEFCDITLLLDGHPRPAHKAILAARSSYFEAMFRSFMPEDGQVNISIGEMVPSRQAFESMLRYIYYGEVNMPPEDSLYLFAAPYYYGFYNNRLQAYCKQNLEMNVTVQNVLQILEAADKTQALDMKRHCLHIIVHQFTKVSKLPTLRSLSQQLLLDIIDSLASHISDKQCAELGADI
notes: Expressed in HEK 293T, HeLa or U87 cells; used as cell lysate; also called LZTR1 wild type-FLAG; LZTR1 WT; not shown: FLAG tag at the C-terminus
Question: Does B1 bind [1]?
Answer: Result: binds

Question: Does B1 bind [2]?
Answer: Result: binds
